Assays:
human VEGF165 = biological target: T1, human VEGF165 (Homo sapiens, UniProt P15692); assay: Biacore binding affinity (KD) to human VEGF; conditions: Biacore 2000, biotinylated human VEGF165 on streptavidin chip; read-out: KD hVEGF
T1 sequence (P15692 27-191 isoform P15692-4): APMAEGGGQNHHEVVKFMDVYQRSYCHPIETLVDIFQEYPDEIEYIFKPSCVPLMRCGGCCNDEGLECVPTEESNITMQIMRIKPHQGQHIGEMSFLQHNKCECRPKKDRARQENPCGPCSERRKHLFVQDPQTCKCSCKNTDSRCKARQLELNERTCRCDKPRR
Procedure: (§1) The KDs of parental antibodies anti-VEGF 219R45 (IgG format), anti-DLL4 21R79 (IgG format), anti-DLL4 21M18 (IgG format) and bispecific antibodies 219R45-MB-21M18 and 219R45-MB-21R79 were determined using a Biacore 2000 system from Biacore LifeSciences (GE Healthcare). Recombinant human DLL4-Fc or mouse DLL4-Fc proteins were immobilized on CM5 carboxyl chips using standard amine-based chemistry (NHS/EDC) and blocked with ethanolamine. Recombinant human VEGF165 or mouse VEGF165 were biotinylated and immobilized on streptavidin chips. The antibodies were serially diluted 2-fold from 100 nM to 0.78 nM in HBS-P (0.01M HEPES pH7.4, 0.15M NaCl, 0.005% v/v Polysorbate 20). For each antibody, all 8 dilutions were sequentially injected over a specific chip. Kinetic data were collected over time and were fit using the simultaneous global fit equation to yield affinity constants (KD values) for each bispecific antibody.

xenograft tumor models = conditions: Hoey et al., 2009; U.S. Pat. No. 7,750,124; cited from earlier work
VEGF and DLL4 = VEGF and DLL4 (Homo sapiens, UniProt P15692+Q9NR61); assay: Bispecific antibody ELISA; type: binding; set-up: purchased ATGEN, South Korea
Procedure: FIG. 7. Bispecific antibody ELISA. Bispecific antibodies 219R45-MB-21M18, 219R45-MB-21R79, 219R45-MB-21R75, and 219R45-MB-21R83 were diluted in blocking buffer (1× PBS, 0.1% gelatin, 0.1% Polysorbate-20, pH 7.4) containing 2 μg/ml biotin-DLL4-hFc. The antibodies were serially diluted 3-fold from 500 ng/ml to 0.008 ng/ml. The antibody samples were incubated for 2 hours in blocking buffer containing the biotin-DLL4-hFc. After incubation, the antibody samples were transferred to a VEGF-coated assay plate (100 ul/well) and incubated for 2 hours. Streptavidin-HRP was added to each well and incubated for 1 hr. TMB substrate was added to the wells with a 10 minute color development and the reaction was stopped with 2M sulfuric acid. Absorbance was read at 450-650 nm and the data analyzed using the 4-parameter fit within the Softmax Pro analysis program.
VEGF (ATGEN, South Korea) was coated onto Nunc maxisorb plates at 2 ug/ml (100 μl/well) and incubated overnight at 2-8° C. Bispecific antibodies 219R45-MB-21M18, 219R45-MB-21R79, 219R45-MB-21R75, and 219R45-MB-21R83 were diluted in blocking buffer (1× PBS, 0.1% gelatin, 0.1% Polysorbate-20, pH 7.4) containing 2 μg/ml biotin-DLL4-hFc. […] Absorbance was read at 450-650 nm and the data analyzed using the 4-parameter fit within the Softmax Pro analysis program (Molecular Devices, Sunnyvale, Calif.).

human DLL4-Fc = human DLL4-Fc (Homo sapiens, UniProt Q9NR61); assay: Biacore binding affinity (KD) to human DLL4; conditions: ratio of KD values
Procedure: as §1
Several additional anti-DLL4 antibodies were identified that had binding affinities intermediate to the KDs of 21M18 and 21R79. Two of these anti-DLL4 antibodies were used to produce anti-VEGF/anti-DLL4 bispecific antibodies 219R45-MB-21R75 and 219R45-MB-21R83. Using the Biacore 2000 system as described above, the KDs of the bispecific antibodies 219R45-MB-21R75 and 219R45-MB-21R83 to human DLL4 were determined.

Sequence of human DLL4-Fc (Q9NR61 27-522 limits assumed): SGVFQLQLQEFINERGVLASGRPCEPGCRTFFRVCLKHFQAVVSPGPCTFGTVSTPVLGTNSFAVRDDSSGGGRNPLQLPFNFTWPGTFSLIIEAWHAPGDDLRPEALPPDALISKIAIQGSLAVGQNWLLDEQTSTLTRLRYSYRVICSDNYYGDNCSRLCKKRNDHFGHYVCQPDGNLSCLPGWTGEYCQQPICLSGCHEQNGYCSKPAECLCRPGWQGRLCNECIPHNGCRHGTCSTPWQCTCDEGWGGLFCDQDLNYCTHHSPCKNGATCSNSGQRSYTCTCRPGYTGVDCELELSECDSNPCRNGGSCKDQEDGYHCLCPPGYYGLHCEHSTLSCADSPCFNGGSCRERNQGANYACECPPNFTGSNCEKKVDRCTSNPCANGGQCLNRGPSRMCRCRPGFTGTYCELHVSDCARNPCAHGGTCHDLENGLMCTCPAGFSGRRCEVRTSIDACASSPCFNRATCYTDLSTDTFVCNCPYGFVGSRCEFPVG

B1: 21M18: anti-DLL4 antibody, parental antibody (Hoey et al., 2009; U.S. Pat. No. 7,750,124) (antibody, V domains shown)
VH: QVQLVQSGAEVKKPGASVKISCKASGYSFTAYYIHWVKQAPGQGLEWIGYISSYNGATNYNQKFKGRVTFTTDTSTSTAYMELRSLRSDDTAVYYCARDYDYDVGMDYWGQGTLVTVSS
VL: DIVMTQSPDSLAVSLGERATISCRASESVDNYGISFMKWFQQKPGQPPKLLIYAASNQGSGVPDRFSGSGSGTDFTLTISSLQAEDVAVYYCQQSKEVPWTFGGGTKVEIK
Kd (human VEGF165): > 0.1 µM
frequency of cancer stem cells in xenograft tumor models (xenograft tumor models): reduce the frequency of cancer stem cells
tumor growth in xenograft tumor models (xenograft tumor models): inhibit tumor growth

B2: 219R45-MB-21R79: anti-VEGF/anti-DLL4 monovalent/bispecific antibody, heavy chains SEQ ID NO:7 and 6, light chains SEQ ID NO:8 (antibody)
heavy 1: QVQLVQSGAEVKKPGASVKVSCKASGYTFTNYWMHWVRQAPGQGLEWMGDINPSNGRTSYKEKFKRRVTLSVDKSSSTAYMELSSLRSEDTAVYFCTIHYDDKYYPLMDYWGQGTLVTVSSASTKGPSVFPLAPCSRSTSESTAALGCLVKDYFPEPVTVSWNSGALTSGVHTFPAVLQSSGLYSLSSVVTVPSSNFGTQTYTCNVDHKPSNTKVDKTVERKCCVECPPCPAPPVAGPSVFLFPPKPKDTLMISRTPEVTCVVVDVSHEDPEVQFNWYVDGVEVHNAKTKPREEQFNSTFRVVSVLTVVHQDWLNGKEYKCKVSNKGLPAPIEKTISKTKGQPREPQVYTLPPSREKMTKNQVSLTCLVKGFYPSDIAVEWESNGQPENNYKTTPPMLKSDGSFFLYSKLTVDKSRWQQGNVFSCSVMHEALHNHYTQKSLSLSPGK
heavy 2: QVQLVQSGAEVKKPGASVKISCKASGYSFTAYYIHWVKQAPGQGLEWIGYIANYNRATNYNQKFKGRVTFTTDTSTSTAYMELRSLRSDDTAVYYCARDYDYDVGMDYWGQGTLVTVSSASTKGPSVFPLAPCSRSTSESTAALGCLVKDYFPEPVTVSWNSGALTSGVHTFPAVLQSSGLYSLSSVVTVPSSNFGTQTYTCNVDHKPSNTKVDKTVERKCCVECPPCPAPPVAGPSVFLFPPKPKDTLMISRTPEVTCVVVDVSHEDPEVQFNWYVDGVEVHNAKTKPREEQFNSTFRVVSVLTVVHQDWLNGKEYKCKVSNKGLPAPIEKTISKTKGQPREPQVYTLPPSREEMTKNQVSLTCLVEGFYPSDIAVEWESNGQPENNYKTTPPMLDSDGSFFLYSELTVDKSRWQQGNVFSCSVMHEALHNHYTQKSLSLSPGK
light: DIVMTQSPDSLAVSLGERATISCRASESVDNYGISFMKWFQQKPGQPPKLLIYAASNQGSGVPDRFSGSGSGTDFTLTISSLQAEDVAVYYCQQSKEVPWTFGGGTKVEIKRTVAAPSVIFPPSDEQLKSGTASVVCLLNNFYPREAKVQWKVDNALQSGNSQESVTEQDSKDSTYSLSSTLTLSKADYEKHKVYACEVTHQGLSSPVTKSFNRGEC
modifications: 21R79 Heavy chain without predicted signal sequence; Light chain without predicted signal sequence
more potent than 219R45-MB-21M18 in bispecific ELISA (VEGF and DLL4): about 7 fold
stronger binding to human DLL4 than 219R45-MB-21M18 (human DLL4-Fc): approximately 30 fold

Source: US11512128B2, “VEGF/DLL4 binding agents and uses thereof” (MEREO BIOPHARMA 5, INC., priority 2011, dated 2022)
